The values below come from patent US20240376151A1, “STAPLED PEPTIDES AND METHODS THEREOF” (FOG PHARMACEUTICALS, INC., priority 2022, published 2024).

For the test, the target named is T1, RNF31 PUB domain (Homo sapiens, UniProt Q96EP0).
T1 construct: MBP-TEV (N, cleaved yes); made in house; host or cells: E. coli BL21 (DE3) pLysS
T1 sequence (Q96EP0 1-179): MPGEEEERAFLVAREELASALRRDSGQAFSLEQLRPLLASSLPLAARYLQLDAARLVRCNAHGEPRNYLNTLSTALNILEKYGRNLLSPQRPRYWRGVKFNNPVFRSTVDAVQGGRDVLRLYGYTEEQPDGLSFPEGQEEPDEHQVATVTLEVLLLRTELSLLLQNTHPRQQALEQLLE
In words: Phage Library Screening with NGS, RNF31 PUB domain. Format: binding. To be noted: for Phage library screen NGS readout, Target Concentration 10 / Phage library screen NGS readout, Target Concentration 30 / Phage library screen NGS readout, Target Concentration 100 / Phage library screen NGS readout, Target Concentration 300 / Phage library screen NGS readout, Target Concentration 1000: RNF31 PUB domain clusters C41-C45; for Phage library screen NGS readout, BLANK: clusters C41-C45.

[1] abbreviates: target concentration 1000, first column.
The mark [2] stands for this setting: target concentration 1000, second column.

Regarding “DPARDWCLYAAYDCYTA (Ac-DPARDWCLYAAYDCYTA-NH2; not fully specified (bridges); cysteine pairing not given here)”, the “Phage library screen NGS readout, Target Concentration 10” value is listed as 0; the “Phage library screen NGS readout, Target Concentration 30” value is 0; the “Phage library screen NGS readout, Target Concentration 100” value was found to be 4; the “Phage library screen NGS readout, Target Concentration 300” value amounted to 61. For the same sequence, the “Phage library screen NGS readout, Target Concentration 1000” value under setting [1] was 350. For the same sequence, under setting [2], the “Phage library screen NGS readout, Target Concentration 1000” value is recorded as 353. Where the note is “column 1 of 5”, the “Phage library screen NGS readout, BLANK” value is 1. For the same sequence, the “Phage library screen NGS readout, BLANK” value (column 2 of 5) is listed as 0. Moreover, the “Phage library screen NGS readout, BLANK” value (column 3 of 5) is listed as 3. For the same sequence, the “Phage library screen NGS readout, BLANK” value (column 4 of 5) was determined as 1. The “Phage library screen NGS readout, BLANK” value (column 5 of 5) is listed as 0.
As for DPARRECWDAAILCTYY, the “Phage library screen NGS readout, Target Concentration 10” value came out at 0; the “Phage library screen NGS readout, Target Concentration 30” value came to 0; the “Phage library screen NGS readout, Target Concentration 100” value is 1; the “Phage library screen NGS readout, Target Concentration 300” value was 12. Besides, the “Phage library screen NGS readout, Target Concentration 1000” value under setting [1] was 40. Besides, the “Phage library screen NGS readout, Target Concentration 1000” value under setting [2] amounted to 44. Also, the “Phage library screen NGS readout, BLANK” value (column 1 of 5) is reported as 0. In addition, the “Phage library screen NGS readout, BLANK” value (column 2 of 5) came out at 0. Where the note is “column 3 of 5”, the “Phage library screen NGS readout, BLANK” value is reported as 1. Further, the “Phage library screen NGS readout, BLANK” value (column 4 of 5) is given as 0. Moreover, the “Phage library screen NGS readout, BLANK” value (column 5 of 5) came out at 0.
DPASEWCLDAAVLCTYS: the “Phage library screen NGS readout, Target Concentration 10” value was determined as 0; the “Phage library screen NGS readout, Target Concentration 30” value was determined as 0; the “Phage library screen NGS readout, Target Concentration 100” value worked out at 3; the “Phage library screen NGS readout, Target Concentration 300” value is on record as 18. Besides, under setting [1], the “Phage library screen NGS readout, Target Concentration 1000” value was 63. In addition, the “Phage library screen NGS readout, Target Concentration 1000” value under setting [2] worked out at 65. Also, the “Phage library screen NGS readout, BLANK” value (column 1 of 5) is given as 2. Also, the “Phage library screen NGS readout, BLANK” value (column 2 of 5) is given as 0. The “Phage library screen NGS readout, BLANK” value (column 3 of 5) is reported as 0. Further, the “Phage library screen NGS readout, BLANK” value (column 4 of 5) was found to be 0. For the same sequence, under “column 5 of 5”, the “Phage library screen NGS readout, BLANK” value is recorded as 0.
Consider DPASHMCLEAAVMCTYD, for which the “Phage library screen NGS readout, Target Concentration 10” value is given as 0; the “Phage library screen NGS readout, Target Concentration 30” value is given as 0; the “Phage library screen NGS readout, Target Concentration 100” value worked out at 0; the “Phage library screen NGS readout, Target Concentration 300” value worked out at 4. Moreover, the “Phage library screen NGS readout, Target Concentration 1000” value under setting [1] stood at 10. The “Phage library screen NGS readout, Target Concentration 1000” value under setting [2] came to 13. The “Phage library screen NGS readout, BLANK” value (column 1 of 5) is 0. Further, for the setting “column 2 of 5”, the “Phage library screen NGS readout, BLANK” value is 0. Moreover, for the setting “column 3 of 5”, the “Phage library screen NGS readout, BLANK” value is given as 0. Moreover, the “Phage library screen NGS readout, BLANK” value (column 4 of 5) is reported as 0. The “Phage library screen NGS readout, BLANK” value (column 5 of 5) worked out at 0.
DPATEACFDAAIECTYY: the “Phage library screen NGS readout, Target Concentration 10” value was 0; the “Phage library screen NGS readout, Target Concentration 30” value worked out at 0; the “Phage library screen NGS readout, Target Concentration 100” value came out at 0; the “Phage library screen NGS readout, Target Concentration 300” value was 2. Under setting [1], the “Phage library screen NGS readout, Target Concentration 1000” value worked out at 7. Besides, the “Phage library screen NGS readout, Target Concentration 1000” value under setting [2] was 5. Besides, the “Phage library screen NGS readout, BLANK” value (column 1 of 5) was 0. Besides, the “Phage library screen NGS readout, BLANK” value (column 2 of 5) amounted to 0. Besides, the “Phage library screen NGS readout, BLANK” value (column 3 of 5) turned out to be 0. For the same sequence, the “Phage library screen NGS readout, BLANK” value (column 4 of 5) was 0. Also, the “Phage library screen NGS readout, BLANK” value (column 5 of 5) was found to be 0.
Turning to DPATWWCLYAAEDCVNI, the “Phage library screen NGS readout, Target Concentration 10” value is listed as 0; the “Phage library screen NGS readout, Target Concentration 30” value was determined as 1; the “Phage library screen NGS readout, Target Concentration 100” value came out at 0; the “Phage library screen NGS readout, Target Concentration 300” value is 2. The “Phage library screen NGS readout, Target Concentration 1000” value under setting [1] came out at 6. In addition, the “Phage library screen NGS readout, Target Concentration 1000” value under setting [2] stood at 6. Further, where the note is “column 1 of 5”, the “Phage library screen NGS readout, BLANK” value is recorded as 0. Also, the “Phage library screen NGS readout, BLANK” value (column 2 of 5) was found to be 0. The “Phage library screen NGS readout, BLANK” value (column 3 of 5) came to 0. The “Phage library screen NGS readout, BLANK” value (column 4 of 5) is on record as 0. Further, the “Phage library screen NGS readout, BLANK” value (column 5 of 5) worked out at 4.
For DPAVVDCWDAAVQCTYY, the “Phage library screen NGS readout, Target Concentration 10” value was found to be 0; the “Phage library screen NGS readout, Target Concentration 30” value was 0; the “Phage library screen NGS readout, Target Concentration 100” value came to 0; the “Phage library screen NGS readout, Target Concentration 300” value was 4. Also, the “Phage library screen NGS readout, Target Concentration 1000” value under setting [1] worked out at 15. The “Phage library screen NGS readout, Target Concentration 1000” value under setting [2] was determined as 11. In addition, the “Phage library screen NGS readout, BLANK” value (column 1 of 5) was 0. Also, the “Phage library screen NGS readout, BLANK” value (column 2 of 5) was determined as 0. Besides, the “Phage library screen NGS readout, BLANK” value (column 3 of 5) stood at 0. For the setting “column 4 of 5”, the “Phage library screen NGS readout, BLANK” value amounted to 2. For the setting “column 5 of 5”, the “Phage library screen NGS readout, BLANK” value is on record as 0.
With DPAWDYCMYAAYDCNHS, the “Phage library screen NGS readout, Target Concentration 10” value is listed as 2; the “Phage library screen NGS readout, Target Concentration 30” value is on record as 0; the “Phage library screen NGS readout, Target Concentration 100” value is on record as 1; the “Phage library screen NGS readout, Target Concentration 300” value is on record as 8. In addition, the “Phage library screen NGS readout, Target Concentration 1000” value under setting [1] was 46. Besides, the “Phage library screen NGS readout, Target Concentration 1000” value under setting [2] is recorded as 29. Moreover, where the note is “column 1 of 5”, the “Phage library screen NGS readout, BLANK” value came to 0. Moreover, the “Phage library screen NGS readout, BLANK” value (column 2 of 5) amounted to 1. Besides, the “Phage library screen NGS readout, BLANK” value (column 3 of 5) was determined as 0. The “Phage library screen NGS readout, BLANK” value (column 4 of 5) stood at 0. Besides, under “column 5 of 5”, the “Phage library screen NGS readout, BLANK” value is given as 1.
DPAWEHCLYAAYDCTHE: the “Phage library screen NGS readout, Target Concentration 10” value is 0; the “Phage library screen NGS readout, Target Concentration 30” value turned out to be 1; the “Phage library screen NGS readout, Target Concentration 100” value was 0; the “Phage library screen NGS readout, Target Concentration 300” value turned out to be 2. The “Phage library screen NGS readout, Target Concentration 1000” value under setting [1] is given as 10. Also, under setting [2], the “Phage library screen NGS readout, Target Concentration 1000” value was 15. For the same sequence, the “Phage library screen NGS readout, BLANK” value (column 1 of 5) was found to be 0. Further, the “Phage library screen NGS readout, BLANK” value (column 2 of 5) is given as 4. The “Phage library screen NGS readout, BLANK” value (column 3 of 5) turned out to be 0. Besides, the “Phage library screen NGS readout, BLANK” value (column 4 of 5) was found to be 0. Further, the “Phage library screen NGS readout, BLANK” value (column 5 of 5) came to 0.
With DPAWESCMYAAYDCDNE, the “Phage library screen NGS readout, Target Concentration 10” value was determined as 0; the “Phage library screen NGS readout, Target Concentration 30” value is listed as 1; the “Phage library screen NGS readout, Target Concentration 100” value is on record as 0; the “Phage library screen NGS readout, Target Concentration 300” value was 2. Moreover, the “Phage library screen NGS readout, Target Concentration 1000” value under setting [1] amounted to 14. For the same sequence, the “Phage library screen NGS readout, Target Concentration 1000” value under setting [2] was 5. Besides, the “Phage library screen NGS readout, BLANK” value (column 1 of 5) is given as 0. Moreover, the “Phage library screen NGS readout, BLANK” value (column 2 of 5) was determined as 0. Further, the “Phage library screen NGS readout, BLANK” value (column 3 of 5) amounted to 0. Further, the “Phage library screen NGS readout, BLANK” value (column 4 of 5) worked out at 0. Further, the “Phage library screen NGS readout, BLANK” value (column 5 of 5) worked out at 0.
As to DPAWEWCLYAAAECIED, the “Phage library screen NGS readout, Target Concentration 10” value amounted to 0; the “Phage library screen NGS readout, Target Concentration 30” value was 0; the “Phage library screen NGS readout, Target Concentration 100” value is on record as 0; the “Phage library screen NGS readout, Target Concentration 300” value was determined as 2. For the same sequence, the “Phage library screen NGS readout, Target Concentration 1000” value under setting [1] was found to be 12. In addition, the “Phage library screen NGS readout, Target Concentration 1000” value under setting [2] was found to be 5. Further, the “Phage library screen NGS readout, BLANK” value (column 1 of 5) was 0. Further, the “Phage library screen NGS readout, BLANK” value (column 2 of 5) was 0. The “Phage library screen NGS readout, BLANK” value (column 3 of 5) stood at 0. Moreover, the “Phage library screen NGS readout, BLANK” value (column 4 of 5) was determined as 0. Besides, the “Phage library screen NGS readout, BLANK” value (column 5 of 5) was 0.
